These are literature values, as cited in patent US5608039A, “Single chain B3 antibody fusion proteins and their uses” (The United States of America as represented by the …, priority 1994, dated 1997).

The conditions of this data set: in vivo.

As to PE, the toxicity result is “highly toxic compounds that typically bring about death through liver toxicity”.
